Consider three molecules from patent EP4778937A1.

Experiment [1] deals with CD112 on MDA-MB-231-Luc-GFP and MDA-MB-231-CD155(-)-Luc-GFP cells (human) (UniProt Q92692). The experiment is described as follows: flow cytometry of MDA-MB-231-Luc-GFP cells stained with the antibody, control incubated with PBS. (A flow cytometer gives signals particle by particle.)
Experiment [2] addresses CD112 (labelled CD112 molecule / CD112 antigen of Example 2) (UniProt Q92692). The experiment is described as follows: flow cytometry, labelled CD112 on CAR-CHO cells; MFI of CD112-positive cells / MFI of TIGIT-positive cells.
The target in experiment [3] is T1, CD155 (labelled CD155 molecule / CD155 antigen of Example 2) (UniProt P15151).
T1 sequence (labelled for flow cytometry, label not stated, looked up): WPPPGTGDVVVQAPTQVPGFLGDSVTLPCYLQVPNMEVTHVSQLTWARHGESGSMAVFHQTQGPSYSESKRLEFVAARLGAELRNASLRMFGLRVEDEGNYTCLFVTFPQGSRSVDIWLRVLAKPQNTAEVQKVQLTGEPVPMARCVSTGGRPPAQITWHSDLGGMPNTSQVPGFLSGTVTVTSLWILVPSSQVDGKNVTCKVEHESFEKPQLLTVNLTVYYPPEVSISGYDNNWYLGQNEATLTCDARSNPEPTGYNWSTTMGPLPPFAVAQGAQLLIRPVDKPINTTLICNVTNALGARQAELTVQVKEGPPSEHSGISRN
Nature of the experiment: flow cytometry, labelled CD155 on CAR-CHO cells; MFI of CD155-positive cells / MFI of TIGIT-positive cells.

As for “CD112 (Nectin2) Monoclonal Antibody (R2.525) PE”, the MFI, fold over the control group in experiment [1] came to 4 fold.

B1: CAR6 (TIGIT mutant peptide Mut6-CD28TM-28Z) (receptor)
chain: MMTGTIETTGNISAEKGGSIILQCHLSSTTAQVTQVNWEQQDQLLAIWNADLGWHISPSFKDRVAPGPGLGLTLQSLTVNDTGEYFCIYHTYPDGTYTGRIFLEVLESSVAEHGARFQIPFWVLVVVGGVLACYSLLVTVAFIIFWVRSKRSRGGHSDYMNMTPRRPGPTRKHYQPYAPPRDFAAYRSRVKFSRSADAPAYKQGQNQLYNELNLGRREEYDVLDKRRGRDPEMGGKPRRKNPQEGLYNELQKDKMAEAYSEIGMKGERRRGKGHDGLYQGLSTATKDTYDALHMQALPPR
With B1, in experiment [2], the relative MFI of CD112 (CD112/TIGIT) came out at 0.13. In experiment [3], this molecule registered a relative MFI of CD155 (CD155/TIGIT) of 1.34.

B2: CAR30 (wild-type TIGIT polypeptide-CD28TM-28Z) (receptor)
chain: MMTGTIETTGNISAEKGGSIILQCHLSSTTAQVTQVNWEQQDQLLAICNADLGWHISPSFKDRVAPGPGLGLTLQSLTVNDTGEYFCIYHTYPDGTYTGRIFLEVLESSVAEHGARFQIPFWVLVVVGGVLACYSLLVTVAFIIFWVRSKRSRGGHSDYMNMTPRRPGPTRKHYQPYAPPRDFAAYRSRVKFSRSADAPAYKQGQNQLYNELNLGRREEYDVLDKRRGRDPEMGGKPRRKNPQEGLYNELQKDKMAEAYSEIGMKGERRRGKGHDGLYQGLSTATKDTYDALHMQALPPR
B2 had a relative MFI of CD112 (CD112/TIGIT) in experiment [2] of 0.16. The same molecule returned a relative MFI of CD155 (CD155/TIGIT) in experiment [3] of 1.03.
